The target in this assay is Alexa Fluor 488-conjugated human CD40-CA-His12 (ectodomain of human CD40) (human). Briefly: scanning fluorescence correlation spectroscopy with brightness-transit statistics (sFCS BTS); CD40-AF488-His tethered through Ni-NTA-DGS to a BSA-blocked supported lipid bilayer, titrated to higher surface densities (100 and 175 molecules/µm^2); brightness and transit time compared with the monomeric control AF488-His; 24 °C.

Broadly, the stoichiometry N is a count of units in the complex or per binding partner.

“Alexa Fluor 488-conjugated human CD40-CA-His12 (ectodomain of human CD40) (domain or fragment)” displayed a stoichiometry N of more than 2.
